Data: US9540424B2, “Serum albumin binding molecules” (BRISTOL-MYERS SQUIBB COMPANY, priority 2010, dated 2017)

B1: SABA1-FGF21v1: SABA1-FGF21 fusion, SEQ ID NO: 132; 293 aa; DNA SEQ ID NO: 184 (protein)
chain: MGVSDVPRDLEVVAATPTSLLISWHSYYEQNSYYRITYGETGGNSPVQEFTVPYSQTTATISGLKPGVDYTITVYAVYGSKYYYPISINYRTEIEKPSQGSGSGSGSGSGSGSPIPDSSPLLQFGGQVRQRYLYTDDAQQTEAHLEIREDGTVGGAADQSPESLLQLKALKPGVIQILGVKTSRFLCQRPDGALYGSLHFDPEACSFRELLLEDGYNVYQSEAHGLPLHLPGNKSPHRDPAPRGPARFLPLPGLPPALPEPPGILAPQPPDVGSSDPLSMVGPSQGRSPSYAS
B2: His-tagged FGF21: non-fused His-tagged FGF21 (“FGFv1”; SEQ ID NO: 125) used as a comparator (protein)
chain: MHHHHHHPIPDSSPLLQFGGQVRQRYLYTDDAQQTEAHLEIREDGTVGGAADQSPESLLQLKALKPGVIQILGVKTSRFLCQRPDGALYGSLHFDPEACSFRELLLEDGYNVYQSEAHGLPLHLPGNKSPHRDPAPRGPARFLPLPGLPPALPEPPGILAPQPPDVGSSDPLSMVGPSQGRSPSYAS
modifications: His6 tag

How the values were obtained:
[1] = system: diabetic ob/ob mice; test: Acute and chronic effects of SABA1-FGF21v1 in diabetic ob/ob mice, 3 weeks daily treatment; format: in vivo, mouse
Text: Additional acute and chronic effects of SABA1-FGF21v1 were examined in the diabetic ob/ob mice. At study termination after 3 weeks of daily treatment, reductions in plasma glucose, insulin and total cholesterol were observed. Plasma alanine aminotransferase was reduced and β-hydroxybutyrate levels were elevated.

[2] = target: T1, HSA (Homo sapiens, UniProt P02768); test: SPR (Biacore T100) kinetics of FGF21-SABA1 fusions: HSA; format: binding; settings: flow rate 30 μl/min
Procedure: (§1) The binding competency and thermodynamic characterization of FGF21-SABA fusion variants to human serum albumin were performed using Isothermal Titration calorimetry on a Microcal VP-ITC instrument (Microcal Inc. Amherst Mass., USA). […] The detailed experimental conditions are described below.
(§2) For the calorimetry assay, the FGF21-SABA variant SABA1-FGF21v1 (SEQ ID NO: 132) was used. […] For the SPR studies, SABA1-FGF21v1 and SABA1-FGF21v3 (SEQ ID NO: 134) were examined.
(§3) Serum albumins were dissolved in PBS buffer (10 mM sodium phosphate, 130 mM sodium chloride, pH 7.1) to a concentration of 10 mg/ml, and subsequently diluted to 8-10 μg/ml in 10 mM sodium acetate pH 5.0 for immobilization. Serum albumins were immobilized on a Series S CMS sensor chip using standard ethyl(dimethylaminopropyl) carbodiimide (EDC)/N-hydroxysuccinimide (NHS) chemistry in HBS-EP+ running buffer at 25° C., following general manufacturer guidelines. Flow cell 1 was activated with EDC/NHS and blocked with ethanolamine. […] Kinetic experiments were performed in PBS buffer containing 0.05% tween-20 (running buffer) at either 25° C. or 37° C. […] These samples were injected across flow cells 1-4 for 300 s, with a 420 s dissociation time, at flow rates of 30 μl/min or 60 μl/min to check for mass transfer limitation. All surfaces were regenerated with 2 pulses of 10 mM glycine pH 2.0 at 30 μl/min for 30 s. Raw sensograms were “double-referenced” by subtracting flow cell 1 data from flow cell 2, 3 or 4 data, and then subtracting a separate buffer cycle from each sensogram. The double-referenced sensogram data was fitted to a 1:1 Langmuir model using Biacore T100 Evaluation software version 2.0.2 to determine the association rate constant (ka), the dissociation rate constant (kd), and the equilibrium dissociation constant (KD).

[3] = target: T1, HSA; test: Isothermal Titration calorimetry of SABA1-FGF21 fusion with HSA; format: binding; settings: 37° C., PBS buffer
Procedure: as §1, §2
SABA-FGF21 fusion protein plus buffer was placed in the instrument sample cell at a concentration range of 0.4 to 1.0 mg/mL protein. The matching buffer was placed in the reference cell. Concentrations were determined using extinction coefficients calculated from the protein sequences of the pure proteins. The instrument reaction cell was equilibrated at 37° C. […] Data sets obtained were baseline-subtracted and corrected for the heat of dilution of the HSA injected into the cell. The resultant thermogram data was fitted using Origin™ evaluation software package (Microcal Inc.) version 2.0.2 to estimate the stochiometry, enthalpy, and equilibrium disassociation constant (KD) of the protein-protein binding reaction.

[4] = target: MuSA (Mus musculus, UniProt P07724); test: SPR (Biacore T100) kinetics of FGF21-SABA1 fusions: MuSA; format: binding, murine; design: purchased Sigma A3559; settings: flow rate 30 μl/min, up to 1 uM analyte
Procedure: as §1, §2, §3

[5] = system: 3T3-L1 adipocytes; test: pERK assay in 3T3-L1 adipocytes; format: cell-based, mouse
Procedure: 3T3-L1 cells (ATCC # CL-173) are mouse fibroblasts that can be differentiated into mouse adipocytes. Since β-klotho is expressed only in differentiated 3T3-L1 cells, it was necessary to first differentiate them before performing a β-klotho pERK 1/2 assay as described in Example B3.
The cells were grown in DMEM media (Invitrogen #12430-054) supplemented with 10% characterized fetal bovine serum (Hyclone # SH30071.03) and 1X Antibiotic-Antimycotic (Gibco #15240-096). Cells were cultured in a 37° C. incubator with 5% CO2. The sub-culturing procedure was followed as described in ATCC's product information sheet with the exception that TrypLE Express (Gibco #12605) was used instead of the Trypsin-EDTA solution.
Approximately 68 hours before differentiation, 5500 cells per well (in 150 μl media) were seeded into 96 well plates (Falcon #353072); cell numbers could be adjusted according to the time of the seeding and their doubling time, but cells were 100% confluent at the time the differentiation procedure was started. […]
At the ninth to tenth day of differentiation, the growth media was aspirated off the cells and cells were starved with 200 μl of DMEM (Invitrogen #12320-032) with 2% fetal bovine serum overnight. […] The plate was finally read on a PerkinElmer Envision 2103 Multilabel Reader, using standard Alpha Screening settings.

[6] = after 3 weeks of daily treatment

Chain of MuSA (P07724 25-608): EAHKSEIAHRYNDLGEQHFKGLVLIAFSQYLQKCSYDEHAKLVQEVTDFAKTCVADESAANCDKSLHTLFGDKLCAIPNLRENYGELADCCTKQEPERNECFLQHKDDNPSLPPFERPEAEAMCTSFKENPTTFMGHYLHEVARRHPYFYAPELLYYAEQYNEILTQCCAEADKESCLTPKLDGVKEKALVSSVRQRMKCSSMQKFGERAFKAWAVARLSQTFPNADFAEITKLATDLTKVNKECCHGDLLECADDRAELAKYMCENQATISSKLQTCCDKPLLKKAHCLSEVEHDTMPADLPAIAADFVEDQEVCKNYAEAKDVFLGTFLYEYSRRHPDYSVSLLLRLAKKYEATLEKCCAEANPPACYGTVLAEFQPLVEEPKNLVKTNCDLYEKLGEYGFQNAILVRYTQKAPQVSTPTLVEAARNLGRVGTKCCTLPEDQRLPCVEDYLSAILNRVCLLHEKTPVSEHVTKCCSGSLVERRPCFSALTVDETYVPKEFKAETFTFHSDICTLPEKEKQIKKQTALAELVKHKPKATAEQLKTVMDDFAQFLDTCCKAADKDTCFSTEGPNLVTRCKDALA

Molecule	Plasma alanine aminotransferase [1, 6]	β-hydroxybutyrate levels [1, 6]	oral glucose tolerance test ([1]; mouse, in vivo, po)	plasma glucose, insulin and total cholesterol ([1]; study termination after 3 weeks of daily treatment)	ka ([2]; 25° C.) [M⁻¹ s⁻¹]	kd ([2]; 25° C.) [s⁻¹]	ka ([2]; 37° C.) [M⁻¹ s⁻¹]	kd ([2]; 37° C.) [s⁻¹]	N (stoichiometry) by isothermal titration calorimetry [3]	binding to MuSA ([4]; 25° C.)	binding to MuSA ([4]; 37° C.)	EC50 [5] [nM]	Fold Activation [5]
B1	reduced	elevated	increased capacity to handle a glucose load	reductions	3380	0.000333	5960	0.00111	0.87	no binding observed up	no binding observed up	–	–
B2	–	–	–	–	–	–	–	–	–	–	–	4 ± 2	2.1 ± 0.2
